In patent US20140302049A1:

Target: human GPR49 (LGR5), on cells (human) (UniProt O75473)
Assay: cell-based or functional assay

Chain of UniProt O75473 (O75473 22-907 limits assumed): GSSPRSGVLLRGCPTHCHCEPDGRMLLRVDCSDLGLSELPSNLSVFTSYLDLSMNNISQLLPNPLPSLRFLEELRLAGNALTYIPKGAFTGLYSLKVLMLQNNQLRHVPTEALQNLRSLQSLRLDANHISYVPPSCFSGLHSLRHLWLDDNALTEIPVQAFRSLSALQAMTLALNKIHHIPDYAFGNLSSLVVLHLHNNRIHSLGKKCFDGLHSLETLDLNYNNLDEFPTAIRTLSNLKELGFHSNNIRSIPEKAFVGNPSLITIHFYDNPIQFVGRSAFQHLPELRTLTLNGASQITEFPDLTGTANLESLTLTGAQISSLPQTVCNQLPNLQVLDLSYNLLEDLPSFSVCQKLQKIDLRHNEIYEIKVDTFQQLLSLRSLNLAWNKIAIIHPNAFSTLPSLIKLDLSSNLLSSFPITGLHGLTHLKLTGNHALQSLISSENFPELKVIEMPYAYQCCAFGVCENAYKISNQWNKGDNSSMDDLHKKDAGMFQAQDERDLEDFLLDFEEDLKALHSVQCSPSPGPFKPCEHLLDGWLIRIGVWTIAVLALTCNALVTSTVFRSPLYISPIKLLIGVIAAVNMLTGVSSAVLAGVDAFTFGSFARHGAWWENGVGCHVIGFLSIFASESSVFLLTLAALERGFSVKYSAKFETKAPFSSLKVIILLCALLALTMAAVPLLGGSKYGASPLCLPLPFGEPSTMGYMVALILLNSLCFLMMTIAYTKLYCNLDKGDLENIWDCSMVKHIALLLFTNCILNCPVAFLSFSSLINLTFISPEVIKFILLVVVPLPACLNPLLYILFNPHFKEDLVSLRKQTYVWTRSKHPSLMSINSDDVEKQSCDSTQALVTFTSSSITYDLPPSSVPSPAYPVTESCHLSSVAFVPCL

increase in proliferation of GPR49-3T3 clone 28: 4 fold
Substance: R-spondin 1 (ligand)
